Results: publication PMC12133298

Target: Rho WT (Escherichia coli) (UniProt P0AG30)
Test: EMSA
Details: 4 C, 1 mM ATP, 5 mM Mg2+, 25 mM Tris-Cl pH 8.0, 50 mM KCl, 5 mM MgCl2, 1 mM DTT, 37 C (or 4 C), 15 min, 0.8% agarose 0.5x TBE, 5 nM DNA

Chain of Rho WT (Escherichia coli) (P0AG30 whole entry): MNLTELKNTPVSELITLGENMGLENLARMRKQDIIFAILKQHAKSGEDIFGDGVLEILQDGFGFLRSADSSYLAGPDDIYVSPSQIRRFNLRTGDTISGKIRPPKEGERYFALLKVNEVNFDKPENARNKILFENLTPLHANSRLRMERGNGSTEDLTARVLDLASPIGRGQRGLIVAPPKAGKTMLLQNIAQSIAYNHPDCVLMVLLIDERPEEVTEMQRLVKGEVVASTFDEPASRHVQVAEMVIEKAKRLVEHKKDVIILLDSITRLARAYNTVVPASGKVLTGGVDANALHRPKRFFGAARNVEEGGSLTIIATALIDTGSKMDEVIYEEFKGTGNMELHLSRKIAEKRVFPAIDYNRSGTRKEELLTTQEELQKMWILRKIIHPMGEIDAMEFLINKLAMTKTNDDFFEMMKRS

## 3.5 kb linear dsDNA
  Kd: 12 nM
